The source of these data is publication PMC7897279.

The data set deals with DNA-PKcs;Ku70;Ku80 (Homo sapiens (HeLa cells);Homo …, UniProt P78527;P12956;P13010 1-4128;1-609;1-732, ||).

B1: 40N (nicked 40 bp DNA) (dsDNA)
DNA 1: GCATGCTCTACTGCTTCGATATCG
DNA 2: AAGCAGTAGAGCATGC
DNA 3: GCATGCTCTACTGCTTCGATATCG
DNA 4: AAGCAGTAGAGCATGC
modifications: none stated
For the molecule B1, the binding result was “binds”.
